Laboratory results reported in patent US20200157174A1 (DRAGONFLY THERAPEUTICS, published 2020).

T1: recombinant mouse NKG2D-Fc (mouse; human, UniProt O54709 90-232)
T1 construct: extracellular domain; also called mouse NKG2D-Fc fusion protein; Mouse NKG2D-Fc-biotin; not shown: human IgG1 Fc domain
T1 sequence (looked up): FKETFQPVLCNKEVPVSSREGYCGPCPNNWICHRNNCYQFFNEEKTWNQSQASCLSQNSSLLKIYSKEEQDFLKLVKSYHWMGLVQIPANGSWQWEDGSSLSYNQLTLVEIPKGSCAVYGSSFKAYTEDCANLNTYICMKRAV

T2: recombinant human NKG2D-Fc (human, UniProt P26718 73-216)
T2 construct: extracellular domain; also called human NKG2D-Fc fusion protein; NKG2D-Fc-biotin; not shown: human IgG1 Fc domain
T2 sequence (looked up): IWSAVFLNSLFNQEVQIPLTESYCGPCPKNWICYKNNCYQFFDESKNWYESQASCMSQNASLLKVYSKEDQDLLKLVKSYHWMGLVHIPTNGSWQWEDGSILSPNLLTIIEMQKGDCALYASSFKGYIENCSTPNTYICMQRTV

T3: recombinant cynomolgus NKG2D-Fc (cynomolgus; human, UniProt P61252 73-216)
T3 construct: extracellular domain; also called cynomolgus NKG2D-Fc fusion protein; not shown: human IgG1 Fc domain
T3 sequence (looked up): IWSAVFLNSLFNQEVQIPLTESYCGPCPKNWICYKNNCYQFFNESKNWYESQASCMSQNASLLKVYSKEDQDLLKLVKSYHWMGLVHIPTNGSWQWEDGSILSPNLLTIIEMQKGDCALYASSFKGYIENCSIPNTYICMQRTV


Experiments:
Experiment in all cases: ELISA on coated NKG2D-Fc;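 also: titrated NKG2D-binding domains on plate-bound human, mouse or cynomolgus NKG2D ectodomain–human IgG1 Fc fusions, detected with HRP anti-human kappa secondary and TMB, absorbance at 450 nm corrected at 540 nm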
[1] = molecular target: T1, recombinant mouse NKG2D-Fc
Description: (§1) After purification, NKG2D-Fc fusion proteins were adsorbed to wells of microplates. After blocking the wells with bovine serum albumin to prevent non-specific binding, NKG2D-binding domains were titrated and added to the wells pre-adsorbed with NKG2D-Fc fusion proteins. Primary antibody binding was detected using a secondary antibody which was conjugated to horseradish peroxidase and specifically recognizes a human kappa light chain to avoid Fc cross-reactivity. 3,3′,5,5′-Tetramethylbenzidine (TMB), a substrate for horseradish peroxidase, was added to the wells to visualize the binding signal, whose absorbance was measured at 450 nm and corrected at 540 nM.

[2] = molecular target: T2, recombinant human NKG2D-Fc
Description: as §1

[3] = molecular target: T3, recombinant cynomolgus NKG2D-Fc
Description: as §1

binding result [1] | binding result [2] | binding result [3] | Binder
binds | binds | binds | ADI-29425 (antibody, V domains shown) VH: QVQLQQWGAGLLKPSETLSLTCAVYGGSFSGYYWSWIRQPPGKGLEWIGEIDHSGSTNYNPSLKSRVTISVDTSKNQFSLKLSSVTAADTAVYYCARARGPWSFDPWGQGTLVTVSS VL: not shown
binds | binds | binds | ADI-29419 (antibody, V domains shown) VH: QVQLQQWGAGLLKPSETLSLTCAVYGGSFSGYYWSWIRQPPGKGLEWIGEIDHSGSTNYNPSLKSRVTISVDTSKNQFSLKLSSVTAADTAVYYCARARGPWSFDPWGQGTLVTVSS VL: not shown
binds | binds | binds | ADI-28226 (antibody, V domains shown, also called C26) VH: QVQLQQWGAGLLKPSETLSLTCAVYGGSFSGYYWSWIRQPPGKGLEWIGEIDHSGSTNYNPSLKSRVTISVDTSKNQFSLKLSSVTAADTAVYYCARARGPWSFDPWGQGTLVTVSS VL: DIQMTQSPSTLSASVGDRVTITCRASQSISSWLAWYQQKPGKAPKLLIYKASSLESGVPSRFSGSGSGTEFTLTISSLQPDDFATYYCQQYGSFPITFGGGTKVEIK
binds | binds | binds | ADI-29405 (antibody, V domains shown) VH: QVQLQQWGAGLLKPSETLSLTCAVYGGSFSGYYWSWIRQPPGKGLEWIGEIDHSGSTNYNPSLKSRVTISVDTSKNQFSLKLSSVTAADTAVYYCARARGPWSFDPWGQGTLVTVSS VL: DIQMTQSPSTLSASVGDRVTITCRASQSISSWLAWYQQKPGKAPKLLIYKASSLESGVPSRFSGSGSGTEFTLTISSLQPDDFATYYCQQYGSFPTFGGGTKVEIK
binds | binds | binds | ADI-27741 (antibody, V domains shown) VH: QVQLQQWGAGLLKPSETLSLTCAVYGGSFSGYYWSWIRQPPGKGLEWIGEIDHSGSTNYNPSLKSRVTISVDTSKNQFSLKLSSVTAADTAVYYCARARGPWSFDPWGQGTLVTVSS VL: DIQMTQSPSTLSASVGDRVTITCRASQSIGSWLAWYQQKPGKAPKLLIYKASSLESGVPSRFSGSGSGTEFTLTISSLQPDDFATYYCQQSNSYYTFGGGTKVEIK
binds | binds | binds | ADI-29421 (antibody, V domains shown) VH: QVQLQQWGAGLLKPSETLSLTCAVYGGSFSGYYWSWIRQPPGKGLEWIGEIDHSGSTNYNPSLKSRVTISVDTSKNQFSLKLSSVTAADTAVYYCARARGPWSFDPWGQGTLVTVSS VL: not shown
binds | binds | binds | ADI-29447 (antibody, V domains shown, also called F47) VH: QVQLQQWGAGLLKPSETLSLTCAVYGGSFSGYYWSWIRQPPGKGLEWIGEIDHSGSTNYNPSLKSRVTISVDTSKNQFSLKLSSVTAADTAVYYCARARGPWSFDPWGQGTLVTVSS VL: DIQMTQSPSTLSASVGDRVTITCRASQSISSWLAWYQQKPGKAPKLLIYKASSLESGVPSRFSGSGSGTEFTLTISSLQPDDFATYYCQQYDTFITFGGGTKVEIK

The remaining lines, values behind:

Binder | binding result [1] | binding result [2] | binding result [3]
ADI-27705 (antibody, V domains shown) VH: QVQLQQWGAGLLKPSETLSLTCAVYGGSFSGYYWSWIRQPPGKGLEWIGEIDHSGSTNYNPSLKSRVTISVDTSKNQFSLKLSSVTAADTAVYYCARARGPWSFDPWGQGTLVTVSS VL: not shown | binds | binds | binds
ADI-29403 (antibody, V domains shown) VH: QVQLQQWGAGLLKPSETLSLTCAVYGGSFSGYYWSWIRQPPGKGLEWIGEIDHSGSTNYNPSLKSRVTISVDTSKNQFSLKLSSVTAADTAVYYCARARGPWSFDPWGQGTLVTVSS VL: not shown | binds | binds | binds
ADI-29429 (antibody, V domains shown) VH: QVQLQQWGAGLLKPSETLSLTCAVYGGSFSGYYWSWIRQPPGKGLEWIGEIDHSGSTNYNPSLKSRVTISVDTSKNQFSLKLSSVTAADTAVYYCARARGPWSFDPWGQGTLVTVSS VL: DIQMTQSPSTLSASVGDRVTITCRASQSIGSWLAWYQQKPGKAPKLLIYKASSLESGVPSRFSGSGSGTEFTLTISSLQPDDFATYYCQQYELYSYTFGGGTKVEIK | binds | binds | binds
ADI-27743 (antibody, V domains shown) VH: QVQLQQWGAGLLKPSETLSLTCAVYGGSFSGYYWSWIRQPPGKGLEWIGEIDHSGSTNYNPSLKSRVTISVDTSKNQFSLKLSSVTAADTAVYYCARARGPWSFDPWGQGTLVTVSS VL: not shown | binds | binds | binds
ADI-29399 (antibody, V domains shown) VH: QVQLQQWGAGLLKPSETLSLTCAVYGGSFSGYYWSWIRQPPGKGLEWIGEIDHSGSTNYNPSLKSRVTISVDTSKNQFSLKLSSVTAADTAVYYCARARGPWSFDPWGQGTLVTVSS VL: not shown | binds | binds | binds
ADI-29404 (antibody, V domains shown, also called F04) VH: QVQLQQWGAGLLKPSETLSLTCAVYGGSFSGYYWSWIRQPPGKGLEWIGEIDHSGSTNYNPSLKSRVTISVDTSKNQFSLKLSSVTAADTAVYYCARARGPWSFDPWGQGTLVTVSS VL: DIQMTQSPSTLSASVGDRVTITCRASQSISSWLAWYQQKPGKAPKLLIYKASSLESGVPSRFSGSGSGTEFTLTISSLQPDDFATYYCEQYDSYPTFGGGTKVEIK | binds | binds | binds
ADI-29401 (antibody, V domains shown) VH: QVQLQQWGAGLLKPSETLSLTCAVYGGSFSGYYWSWIRQPPGKGLEWIGEIDHSGSTNYNPSLKSRVTISVDTSKNQFSLKLSSVTAADTAVYYCARARGPWSFDPWGQGTLVTVSS VL: DIQMTQSPSTLSASVGDRVTITCRASQSIGSWLAWYQQKPGKAPKLLIYKASSLESGVPSRFSGSGSGTEFTLTISSLQPDDFATYYCQQYDIYPTFGGGTKVEIK | binds | binds | binds
ADI-27740 (antibody, V domains shown, also called A40) VH: QVQLQQWGAGLLKPSETLSLTCAVYGGSFSGYYWSWIRQPPGKGLEWIGEIDHSGSTNYNPSLKSRVTISVDTSKNQFSLKLSSVTAADTAVYYCARARGPWSFDPWGQGTLVTVSS VL: DIQMTQSPSTLSASVGDRVTITCRASQSIGSWLAWYQQKPGKAPKLLIYKASSLESGVPSRFSGSGSGTEFTLTISSLQPDDFATYYCQQYHSFYTFGGGTKVEIK | binds | binds | binds
ADI-29424 (antibody, V domains shown) VH: QVQLQQWGAGLLKPSETLSLTCAVYGGSFSGYYWSWIRQPPGKGLEWIGEIDHSGSTNYNPSLKSRVTISVDTSKNQFSLKLSSVTAADTAVYYCARARGPWSFDPWGQGTLVTVSS VL: DIQMTQSPSTLSASVGDRVTITCRASQSISSWLAWYQQKPGKAPKLLIYKASSLESGVPSRFSGSGSGTEFTLTISSLQPDDFATYYCQQYDSFITFGGGTKVEIK | binds | binds | binds
ADI-29426 (antibody, V domains shown) VH: QVQLQQWGAGLLKPSETLSLTCAVYGGSFSGYYWSWIRQPPGKGLEWIGEIDHSGSTNYNPSLKSRVTISVDTSKNQFSLKLSSVTAADTAVYYCARARGPWSFDPWGQGTLVTVSS VL: DIQMTQSPSTLSASVGDRVTITCRASQSIGSWLAWYQQKPGKAPKLLIYKASSLESGVPSRFSGSGSGTEFTLTISSLQPDDFATYYCQQYHSFPTFGGGTKVEIK | binds | binds | binds
ADI-29407 (antibody, V domains shown) VH: QVQLQQWGAGLLKPSETLSLTCAVYGGSFSGYYWSWIRQPPGKGLEWIGEIDHSGSTNYNPSLKSRVTISVDTSKNQFSLKLSSVTAADTAVYYCARARGPWSFDPWGQGTLVTVSS VL: DIQMTQSPSTLSASVGDRVTITCRASQSISSWLAWYQQKPGKAPKLLIYKASSLESGVPSRFSGSGSGTEFTLTISSLQPDDFATYYCQQYQSFPTFGGGTKVEIK | binds | binds | binds
ADI-27727 (antibody, V domains shown) VH: QVQLVQSGAEVKKPGSSVKVSCKASGGTFSSYAISWVRQAPGQGLEWMGGIIPIFGTANYAQKFQGRVTITADESTSTAYMELSSLRSEDTAVYYCARGDSSIRHAYYYYGMDVWGQGTTVTVSS VL: not shown | binds | binds | binds
